The target in test [1] is T1, Recombinant Human DLL4 (R&D Systems Cat#1506-D4/CF) (human, UniProt Q9NR61 27-524).
T1 construct: also called rHuman DLL4; delta-like protein 4
The test is described as follows: ECL (MSD) binding assay, Fab on immobilized recombinant human DLL4.

The target in test [2] is T2, Recombinant Human DLL4 (delta-like protein 4) (human, UniProt Q9NR61 27-524).
T2 construct: also called rHuman DLL4; Delta-like 4
The test is described as follows: ELISA, Fab on plate-coated DLL4.

Test [3] addresses T2, Recombinant Human DLL4 (delta-like …). The test is described as follows: ECL (MSD) binding assay, Fab on immobilized DLL4.
Test [4] has as its target T3, rHuman ErbB2/Fc Chimera, CF (R&D Systems Cat#1129-ER) (human, UniProt P04626 23-652).
T3 construct: Bought recombinant protein; also called human epidermal growth factor 2 receptor; Fc part of the bought chimera not given
As to the kind of experiment: ECL multispot (MSD) binding assay, antigen spotted on plate, Fab 0.04 uM.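 Also: purified Fab incubated 1 h at 20 °C on antigen spots, detected via TAG-labelled antibody, ECL read against each well's blank, with signal-to-blank of at least 4 scored as binder.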

Test [5] deals with T4, rHuman EGF R/Fc Chimera, CF (R&D Systems Cat#344-ER) (human, UniProt P00533 25-645).
T4 construct: Bought recombinant protein; also called epidermal growth factor receptor; Fc part of the bought chimera not given
The test is described as above.

In test [6] the target is T5, rHuman P-Cadherin/Fc Chimera, CF (R&D Systems Cat#861-PC) (human, UniProt P22223 108-654).
T5 construct: Bought recombinant protein; Fc part of the bought chimera not given
The test is described as above.

Test [7] addresses T6, Recombinant Human DLL4 (R&D Systems Cat#1506-D4/CF) (human, UniProt Q9NR61 27-524).
T6 construct: Bought recombinant protein; also called delta-like protein 4; rHuman DLL4
Described as above.

Test [8] has as its target T7, Recombinant Human DLL4 (delta-like protein 4) (human, UniProt Q9NR61 27-529).
T7 construct: Bought recombinant protein (R&D Systems Cat#1506-D4/CF); also called rHuman DLL4; Delta-like 4
The test is described as follows: ECL (MSD) 96-well plate assay; plate coated with 30 µg/mL DLL4; Fab 0.02 µM.

Test [9] deals with T7, Recombinant Human DLL4 (delta-like …). As to the kind of experiment: ECL (MSD) 96-well plate assay; plate coated with 15 µg/mL DLL4; Fab 0.004 µM.

The results in this text go back to patent US20120316071A1 (published 2012).

B1: Fab VH5-51_IGHD5-18*01>3_IGHJ4*01 G100K/G104T/G24A/S28R/G35V (KT ARV) & V3-4_IGLJ1*01 (Fab, V domains shown)
VH: EVQLVQSGAEVKKPGESLKISCKASGYRFTSYWIVWVRQMPGKGLEWMGIIYPGDSDTRYSPSFQGQVTISADKSISTAYLQWSSLKASDTAMYYCARRKYSYTYDYFDYWGQGTLVTVSS
VL: QTVVTQEPSFSVSPGGTVTLTCGLSSGSVSTSYYPSWYQQTPGQAPRTLIYSTNTRSSGVPDRFSGSILGNKAALTITGAQADDESDYYCVLYMGSGISYVFGTGTKVTVL
notes: Tested as Fab; CH1 with His6/Flag tags (plasmid A) and lambda CL (plasmid E) come from the expression vectors
In the case of B1, the “ECL signal” value in test [1] is 17400.

B2: Fab VH5-51_IGHD5-18*01>3_IGHJ4*01 G100K/G104T/G24T/S28R/G35V (KT TRV) & V3-4_IGLJ1*01 (Fab, V domains shown)
VH: EVQLVQSGAEVKKPGESLKISCKTSGYRFTSYWIVWVRQMPGKGLEWMGIIYPGDSDTRYSPSFQGQVTISADKSISTAYLQWSSLKASDTAMYYCARRKYSYTYDYFDYWGQGTLVTVSS
VL: QTVVTQEPSFSVSPGGTVTLTCGLSSGSVSTSYYPSWYQQTPGQAPRTLIYSTNTRSSGVPDRFSGSILGNKAALTITGAQADDESDYYCVLYMGSGISYVFGTGTKVTVL
notes: Tested as Fab; CH1 with His6/Flag tags (plasmid A) and lambda CL (plasmid E) come from the expression vectors; also called H:KT TRV & L:wt
For the molecule B2, the “ECL signal” value in test [1] stood at 26100.

B3: Fab VH5-51_IGHD5-18*01>3_IGHJ4*01 G100K/G104T/S28R (KT S28R) & V3-4_IGLJ1*01 (Fab, V domains shown)
VH: EVQLVQSGAEVKKPGESLKISCKGSGYRFTSYWIGWVRQMPGKGLEWMGIIYPGDSDTRYSPSFQGQVTISADKSISTAYLQWSSLKASDTAMYYCARRKYSYTYDYFDYWGQGTLVTVSS
VL: QTVVTQEPSFSVSPGGTVTLTCGLSSGSVSTSYYPSWYQQTPGQAPRTLIYSTNTRSSGVPDRFSGSILGNKAALTITGAQADDESDYYCVLYMGSGISYVFGTGTKVTVL
notes: as for B1
With B3, the “ECL signal” value in test [1] was found to be 6420.

B4: Fab VH5-51_IGHD5-18*01>3_IGHJ4*01 G100K/G104T S28N & V3-4_IGLJ1*01 (Fab, V domains shown)
VH: EVQLVQSGAEVKKPGESLKISCKGSGYNFTSYWIGWVRQMPGKGLEWMGIIYPGDSDTRYSPSFQGQVTISADKSISTAYLQWSSLKASDTAMYYCARRKYSYTYDYFDYWGQGTLVTVSS
VL: QTVVTQEPSFSVSPGGTVTLTCGLSSGSVSTSYYPSWYQQTPGQAPRTLIYSTNTRSSGVPDRFSGSILGNKAALTITGAQADDESDYYCVLYMGSGISYVFGTGTKVTVL
notes: Fab from E. coli: VH-CH1 from Plasmid A with His6 and Flag tags, VL with lambda CL from Plasmid E; also called KT S28N
Regarding B4, the “ELISA (Signal-Noise)” value in [2] was found to be 0.09. The “ECL signal” value in test [3] came to 17300.

B5: Fab VH5-51_IGHD5-18*01>3_IGHJ4*01 G100K/G104T (H:KT) & V3-4_IGLJ1*01 S96A (Fab, V domains shown)
VH: EVQLVQSGAEVKKPGESLKISCKGSGYSFTSYWIGWVRQMPGKGLEWMGIIYPGDSDTRYSPSFQGQVTISADKSISTAYLQWSSLKASDTAMYYCARRKYSYTYDYFDYWGQGTLVTVSS
VL: QTVVTQEPSFSVSPGGTVTLTCGLSSGSVSTSYYPSWYQQTPGQAPRTLIYSTNTRSSGVPDRFSGSILGNKAALTITGAQADDESDYYCVLYMGAGISYVFGTGTKVTVL
notes: Fab; Expressed from Plasmid A (CH1, His6 and Flag tags) and Plasmid E (lambda CL); also called KT & S96A
On to B5, for which the ECL signal in [4] worked out at 1280; in [5], 1000; in [6], 491; in test [7], 32300.

B6: Fab VH5-51_IGHD5-18*01>3_IGHJ4*01 G100K/G104T S28R & V3-4_IGLJ1*01 (Fab, V domains shown)
VH: EVQLVQSGAEVKKPGESLKISCKGSGYRFTSYWIGWVRQMPGKGLEWMGIIYPGDSDTRYSPSFQGQVTISADKSISTAYLQWSSLKASDTAMYYCARRKYSYTYDYFDYWGQGTLVTVSS
VL: QTVVTQEPSFSVSPGGTVTLTCGLSSGSVSTSYYPSWYQQTPGQAPRTLIYSTNTRSSGVPDRFSGSILGNKAALTITGAQADDESDYYCVLYMGSGISYVFGTGTKVTVL
notes: Fab from E. coli: VH-CH1 from Plasmid A with His6 and Flag tags, VL with lambda CL from Plasmid E; also called KT S28R
For B6, the “ELISA (Signal-Noise)” value in test [2] is 0.29. Further, the “ECL signal” value in [3] is 51400.

B7: Fab VH1-46_IGHD6-6*01_IGHJ1*01 S104C & L6_IGKJ1*01 (Fab, V domains shown)
VH: QVQLVQSGAEVKKPGASVKVSCKASGYTFTSYYMHWVRQAPGQGLEWMGIINPSGGSTSYAQKFQGRVTMTRDTSTSTVYMELSSLRSEDTAVYYCAREEYSSCSAEYFQHWGQGTLVTVSS
VL: not shown
notes: Fab; The VH was cloned into Plasmid A (CH1, His6 and Flag tags) and the kappa VL into Plasmid C (kappa CL); expressed in E. coli
For B7, the Signal/Noise in test [8] was determined as 9.9; in test [9], 8.4.
